Substitutions are numbered along the chain they refer to. Numbers in names are those of the source. Entries after “also recorded” stand apart in the source; their conditions may differ.
B1: R392A (protein, UniProt Q9Y4K3 1-522, looked up, variant R392A)
TNF receptor-associated …: MSLLNCENSCGSSQSESDCCVAMASSCSAVTKDDSVGGTASTGNLSSSFMEEIQGYDVEFDPPLESKYECPICLMALREAVQTPCGHRFCKACIIKSIRDAGHKCPVDNEILLENQLFPDNFAKREILSLMVKCPNEGCLHKMELRHLEDHQAHCEFALMDCPQCQRPFQKFHINIHILKDCPRRQVSCDNCAASMAFEDKEIHDQNCPLANVICEYCNTILIREQMPNHYDLDCPTAPIPCTFSTFGCHEKMQRNHLARHLQENTQSHMRMLAQAVHSLSVIPDSGYISEVRNFQETIHQLEGRLVRQDHQIRELTAKMETQSMYVSELKRTIRTLEDKVAEIEAQQCNGIYIWKIGNFGMHLKCQEEEKPVVIHSPGFYTGKPGYKLCMALHLQLPTAQRCANYISLFVHTMQGEYDSHLPWPFQGTIRLTILDQSEAPVRQNHEEIMDAKPELLAFQRPTIPRNPKGFGYVTFMHLEALRQRTFIKDDTLLVRCEVSTRFDMGSLRREGFQPRSTDAGV
B2: F471A (protein, UniProt Q9Y4K3 1-522, looked up, variant F471A)
TNF receptor-associated …: B1 TNF receptor-associated … with A392R, F471A

What was measured:
[1] = system: GST-RANK314-355; assay: AlphaScreen PPI, TRAF6 mutants binding to RANK; set-up: species or system human; settings: for effect of TRAF6 mutation on binding to RANK (in words): AlphaScreen PPI; for TRAF6 binding to RANK (AlphaScreen), mean / TRAF6 binding to RANK (AlphaScreen): Figure 2c; for TRAF6 binding to RANK (AlphaScreen), mean: mean of n = 4
Experimental: Fig. 2 LMP1 binds to the receptor-interacting surface of TRAF6. a Mutations within the receptor-interacting surface of TRAF6 affect binding to LMP1. The TRAF6 mutants R392A, K469A, F471A, and Y473A were tested LMP1 in AlphaScreen PPI experiments with GST-LMP1_181-386. Data are mean values ± SD of three independent experiments. Statistics: one-way ANOVA. b TRAF6 R392A differentiates between CD40 and LMP1/RANK. AlphaScreen PPI experiments with GST-CD40_216-277. Data are mean values ± SD of three independent experiments. […] AlphaScreen PPI experiments with GST-RANK314-355. Data are mean values ± SD of four independent experiments. Statistics: one-way ANOVA. d TRAF6 mutants that fail to interact with LMP1 in PPI assays are also unable to bind cellular LMP1. HEK293 cells were co-transfected with HA-LMP1 and the indicated Flag-TRAF6 mutants. Flag-TRAF6 was immunoprecipitated (IP) via its Flag-tag and coprecipitated HA-LMP1 was detected on immunoblots by an α-HA antibody. Uncropped blots in Supplementary Fig. 6b. For statistical analysis LMP1 signals were digitalized and quantified (graph). Data are mean values ± SD of three independent experiments. […] TRAF6 recruitment is dependent on amino acids 371 − 386 of LMP1 (small panel). Confocal microscopy images show representative cells of three independent experiments. Quantitative data are mean values ± SD of ten randomly selected cells per transfection of one representative experiment (graph). Scale bars: 10 µm. Statistics: one-way ANOVA. p-values: *p ≤ 0.05, **p ≤ 0.01, ***p ≤ 0.001, ****p ≤ 0.0001. Source data and exact p-values in the Source Data file.
(§1) AlphaScreen experiments were performed in 96- or 384-well plates (Perkin Elmer, OptiPlate). In both assay formats, His-TRAF and GST-LMP1, GST-CD40, or GST-RANK proteins were incubated together in 40 µL of PBS (protein concentrations were calculated to the final reaction volume of 60 µL) supplemented with 0.5% BSA (Sigma, #A7030) and 0.1% Tween-20 (AppliChem, #A4974), for 1 h at room temperature (RT). If not indicated otherwise, standard protein concentrations were 300 nM for His-TRAF proteins and 100 nM for GST-LMP1 proteins. Ni-NTA-acceptor (Perkin Elmer, #6760619 C) and GST-acceptor (Perkin Elmer, # 6765300) beads were added each to a final concentration of 1–4 µg per mL in a final reaction volume of 60 µL and incubated for 1 h at RT in the dark. AlphaScreen PPI signals were measured in a CLARIOstar reader (BMG Labtech GmbH).

[2] = system: GST-LMP1 Q381E; assay: AlphaScreen PPI, TRAF6 mutants binding to LMP1 Q381E; set-up: species or system Epstein-Barr virus; settings: for interaction with LMP1 Q381E (in words): AlphaScreen PPI, four independent experiments; for TRAF6 binding to LMP1 Q-E, AlphaScreen (relative), Supplementary Figure 2 a: mean of wt = 100; for TRAF6 binding to LMP1 Q-E, AlphaScreen (relative), mean: wt = 100, mean of n = 4
Experimental: as §1, with “GmbH). […]” for “GmbH).”
Supplementary Figure 2. LMP1 Q381E interaction with TRAF6 and additional controls to
experiments. Data are mean values ± SD of four independent experiments. Statistics: one -way
ANOVA. p-values: ****p ≤ 0.0001. Source data in the Source Data file. […]

Molecule | effect of TRAF6 mutation on binding to RANK (in words) [1] | TRAF6 binding to RANK (AlphaScreen), mean [1] | TRAF6 binding to RANK (AlphaScreen) ([1]; replicate 1) | TRAF6 binding to RANK (AlphaScreen) ([1]; replicate 2) | TRAF6 binding to RANK (AlphaScreen) ([1]; replicate 3) | TRAF6 binding to RANK (AlphaScreen) ([1]; replicate 4) | interaction with LMP1 Q381E (in words) [2] | TRAF6 binding to LMP1 Q-E, AlphaScreen (relative), Supplementary Figure 2 a ([2]; replicate 1) | TRAF6 binding to LMP1 Q-E, AlphaScreen (relative), Supplementary Figure 2 a ([2]; replicate 2) | TRAF6 binding to LMP1 Q-E, AlphaScreen (relative), Supplementary Figure 2 a ([2]; replicate 3) | TRAF6 binding to LMP1 Q-E, AlphaScreen (relative), Supplementary Figure 2 a ([2]; replicate 4) | TRAF6 binding to LMP1 Q-E, AlphaScreen (relative), mean [2]
B1 | do not bind to RANK; also recorded: prevented the interaction of TRAF6 with LMP1 and RANK | 0.1 | 0.1 | 0.1 | 0.1 | 0.1 | fail to interact with LMP1 Q381E; also recorded: unable to override the negative effect of R392A mutation | 8.4 | 4.1 | 6.1 | 4.8 | 5.85
B2 | do not interact | 0.725 | 0.2 | 0.4 | 0.2 | 2.1 | fail to interact with LMP1 Q381E; also recorded: unable to override the negative effect | 4.8 | 2.2 | 3.4 | 2.2 | 3.15
